Key:
[1] = target: the molecule itself; assay: non-reducing SDS-PAGE; recombinant hSSB1 proteins purified under non-reducing conditions, no reducing agent; Coomassie blue (2 μg) and anti-hSSB1 immunoblot (500 ng)
[2] = target: the molecule itself; assay: non-reducing SDS-PAGE with immunoblot; whole cell lysates of U2OS cells (2% O2) treated with 250 μM H2O2 or 30 mM KBrO3 for 30 min; loading buffer without DTT; probed for endogenous hSSB1
[3] = target: the molecule itself; assay: SEC-MALS; non-reduced (oxidized) protein, ~200-250 μg on Superose 12 10/30; 20 mM Tris pH 7, 100 mM NaCl, 1 mM EDTA, without TCEP

B1: recombinant C99S hSSB1 (natural protein, human, UniProt Q9BQ15 1-211, looked up)
chain: MTTETFVKDIKPGLKNLNLIFIVLETGRVTKTKDGHEVRTCKVADKTGSINISVWDDVGNLIQPGDIIRLTKGYASVFKGCLTLYTGRGGDLQKIGEFSMVYSEVPNFSEPNPEYSTQQAPNKAVQNDSNPSASQPTTGPSAASPASENQNGNGLSAPPGPGGGPHPPHTPSHPPSTRITRSQPNHTPAGPPGPSSNPVSNGKETRRSSKR
notes: human hSSB1 (NABP2/OBFC2B) with cysteine 99 mutated to serine; source: E. coli T7 shuffle strain, purified under non-reducing conditions
- binding result [1]: binds

B2: human single-stranded DNA binding protein 1 (hSSB1), endogenous (natural protein, human (endogenous in U2OS), UniProt Q9BQ15 1-211, looked up)
chain: MTTETFVKDIKPGLKNLNLIFIVLETGRVTKTKDGHEVRTCKVADKTGSINISVWDDVGNLIQPGDIIRLTKGYASVFKGCLTLYTGRGGDLQKIGEFCMVYSEVPNFSEPNPEYSTQQAPNKAVQNDSNPSASQPTTGPSAASPASENQNGNGLSAPPGPGGGPHPPHTPSHPPSTRITRSQPNHTPAGPPGPSSNPVSNGKETRRSSKR
notes: also called NABP2; OBFC2B; source: endogenous, U2OS whole cell lysate
- stoichiometry N [2]: ~4

B3: recombinant hSSB1 (hexa-histidine tagged, wild type) (natural protein, human, UniProt Q9BQ15 1-211, looked up)
chain: MTTETFVKDIKPGLKNLNLIFIVLETGRVTKTKDGHEVRTCKVADKTGSINISVWDDVGNLIQPGDIIRLTKGYASVFKGCLTLYTGRGGDLQKIGEFCMVYSEVPNFSEPNPEYSTQQAPNKAVQNDSNPSASQPTTGPSAASPASENQNGNGLSAPPGPGGGPHPPHTPSHPPSTRITRSQPNHTPAGPPGPSSNPVSNGKETRRSSKR
notes: Oxidized and reduced preparations are the same construct; also called his-hSSB1; hSSB1 WT; source: E. coli T7 shuffle strain (Δgor ΔtrxB), purified (SP sepharose, Ni-NTA, Superdex200); without reducing agents ("oxidized") or with 1 mM DTT in all buffers ("reduced")
- stoichiometry N [3]: > 3
- stoichiometry N [1]: 2

B4: recombinant C81S hSSB1 (natural protein, human, UniProt Q9BQ15 1-211, looked up)
chain: MTTETFVKDIKPGLKNLNLIFIVLETGRVTKTKDGHEVRTCKVADKTGSINISVWDDVGNLIQPGDIIRLTKGYASVFKGSLTLYTGRGGDLQKIGEFCMVYSEVPNFSEPNPEYSTQQAPNKAVQNDSNPSASQPTTGPSAASPASENQNGNGLSAPPGPGGGPHPPHTPSHPPSTRITRSQPNHTPAGPPGPSSNPVSNGKETRRSSKR
notes: human hSSB1 (NABP2/OBFC2B) with cysteine 81 mutated to serine; source: E. coli T7 shuffle strain, purified under non-reducing conditions
- binding result [1]: binds
